Experiment: yeast display, Sf9 membrane polyspecificity reagent, FACS + sequencing; frameworks hold sequencing errors
Method in brief: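 A nanobody's polyreactivity label depends on the gate it was sorted from. Yeast display cells were stained with 10% biotinylated, detergent-solubilized Sf9 membrane reagent for 1 hour at 4 °C, enriched on streptavidin microbeads and sorted by FACS. The low and high (top ~1%) gates were set on anti-HA fluorescence for expression and streptavidin fluorescence for reagent binding.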

Sequence	polyreactivity (PSR sort gate)
QVQLVESGGGLVQAGGSLRLSCAASGFIFAAYAMGWYRQAPGKERELVAAISGSGGRTYYADSVKGRFTISRDNAKNTVYLQMNSLKPEDTAVYYCATPPGYPPGSIKWSRFGYWGQGTQVTVSS	high polyreactivity
QVQLVESGGGLVQAGGSLRLSCADSGRIFGINAKGWYRQAPGKARELVASISRRVGRTSYADSVKGRFTISRDNAKNTVYLQMNSLKPEDTAGYFCAADVWNDGSWTDYDYWGQGTQVTVSS	high polyreactivity
QVELVASGGGLVQAGGSLRLSCAASGSTFAANAMGWYRQAPGKERELVAAITSGGGSTYYADSVKGRFTISRDNEKITVYLQMNSLKPEDTAVYYCAALQSHGVDYDYWGLGTQVTVSS	low polyreactivity
QVQLVESGGGLVQAGGSLRLSCAASGSTFVSYDMGWYRQAPGKERELVAAIDWSGGNTDYADSVKGRFTISRDNAKNTVYLQMNSLKPEDNAVYYCAVEKFFRAEYDHWGQGTQVTVSS	low polyreactivity
QFQLVESGGGLVQAGGSLRLSCAASGRTFPWYAMGWYRQEPGKDRELVAAISWTGGSTYYADSVKGRFTISRDNAKNTVYLQMNSLKPEDTAFYYCAASPWYLKYEYWGQGTQVTVSW	low polyreactivity
QVQLVESGGGLVQAGGSLRLSSAASGSIFTGSALGWYRQAPGKEREFFARITKRGVSTYYADSVKGRFTISRDKAKNTVYLHMNSLKPEDTAVYYCNADRKFPYGSYETHDYWGQGPQVTVSS	high polyreactivity
QVQLVESGGGLVQAGGSLRLSCAASGFTLANYAMGWYRQAPGKERELVAAIDYSGGGTYYADSVKGRFTISRDNAKNTVYLQMNSLKPEDTAVYYCAARRWSYYSAKYDYWGQGTQVTVSS	low polyreactivity
QVQLVDSGGGLVQAGGSLRLSCDASGLIFRYYTMGWYRQAPGKERELVATITKSGSSTYYADSVKGRFTISRDNAKNTVYLQMNSLKPEDTAVYYCAARAYPSSPRGVYAYYYWGQGTQVTVSS	high polyreactivity
QVQLVESGGGLVQAGGSLRLSCAASGLTFPSYAMGWYRQAPGKERELVAVISSSGGRTYYADSVKGRFTISRDNAKNTVYLQMNSLIPEDTAVYYCNVGGFLRRRSYDYWGQGTQVTVSS	high polyreactivity
QVQLVESGGGLVQAGGSLRLSCAASGLTFYCYAMGWYRQAPGKERELVAAITSGDSTYYADSVKGRFTISRDNAKNTVYLQMNSLKPEDTAVYYCAAVGGYPRYGYWGQGTQVTVSS	high polyreactivity
QVQLVESGGGLVQAGASLRISCAASGRIFGRNAMGWYRQEPGIEREFVARIRTSGGSTYNADSVKGRFTISRDNAKNTVYLQMNSLKPEDTAVYYCAAAVYTSARGYDYWGQGTQVTLSS	high polyreactivity
QVQLVESGGGLVQAGGSLRLSCAASGRNSLYYTMGWYRQAPGKEREFVAAISSTGGSTYYADSVKGRFTISRDNAKNTVYLLMNSLKPVDTAVYYCNKVYGGGTYDYWGQGTQVTVSS	low polyreactivity
QVQLVESGGGLVQAGGSLRLSCAASGSTLGYYVMGWYRQAPGKERELVAAITGGGSTDYADSVKGRFTISRDNAKNTVYLQMNSLIPEDTAVYYCAAERTRTGQLFWWGPIYDYWGQGTQVTVSS	low polyreactivity
QVQLVESGGGLVQAGGSLRLSCAASGSTFGYNAMGWYRQAPGKERELVAAISWSGGSTYYADSVKGRFTISRDNAKNTVYLQMNSLKPEDTAVYYCAALTHYGGYGYTYDYWGQGTQVTVSS	low polyreactivity
QVQLVESGGGLVQAGGSLRLSCAASGRNFRDYTMGWYRQAPGKERELVAAITSTGDTNYADSVKGRFTISRDNAKNTVYLQMNSLKPEDTAVYYCATQTGEEYQAPLIYDYWGQGTQVTVSS	low polyreactivity
QDQLVESGGGLVQAGGSLRLSCAASGRTFAYKVMGWYRQAPGNERELVAANSRGGGRTYYADSVKGRFTISRDNAKNTVYLQMNSLKPEDTAVYYCNAASSGLSGRLTSIINDYWGQGTQVTVSS	high polyreactivity

Sequence	polyreactivity (PSR sort gate)
QVQLVESGVGLVQAGGSLRLSCAASGRIFEDNAMGWYRQAPGKERELVAAIDFSGGDTYYADSVKGRFTISRDNAKNTVYLQMYSLKPEDTAVYYCAAGRSGWGYVSWGQGTQVTVSS	low polyreactivity
QVQLVESGGGLVQAGGRLRLSCAASGITFLNYAMGWYRPAPRKERELVAAISWSGGRTYYADSVKGRFTISRDNAKNTVFLQMNSLKPEDNAVYYCAADRGVNSYGYWGQGTQVTVSS	high polyreactivity
QVQLVESGGGLVQAGGSLRLSCAASGRIFGRNVMGWYRQAPGKERELVAAITTGGGSTYYADSVKGRFTISRDNAKNTVYLQMNSLKPEDTAVYYCATDRRHEYSSRRYYYWGQGTQVTVSS	high polyreactivity
QVQLVESGGGLVQAGGSLRLCCAASGSIFLLNAMGWYRQAPGKERELVAAISWGGGSTYYADSVKGRFTISRDNAKNTVYLQMNSLKPEDTAVYYCNASVTLGLEVDYSGQGTQVTVSS	low polyreactivity
QVQLVESGGGLVQAGGSLRLSCAASGYIFKSYVMGWYRQAPGKERELVAAISWGGGRTYYADSVKGRFTISRDNAKNTVYLQMNSLKPEDTAVYYCAADTKVGNGIKFDYWGQGTQVTVSS	high polyreactivity
QVQLVESGGGLVQAGGSLRLSCAASGSTFAWNAMGWYRQAPGKERELVAAISWSGVRTYYADSVKGRFTISRDNAKNTVYLQMNSLKPEDTAVYYCAAPVYWAYTRSMDYWGQGTQVTVSS	high polyreactivity
QVQLVESGVGLVQAGGSLRLSCAASGRTLSKNAMGWYRQAPWKERELVATMSSVGRTNYADSVKGRFTISRDNAKNTVYLQMNSLKPEDTAVYYCAARRFRGSYYWGQGTQVTVSS	high polyreactivity
QVQLVESGGGLVQAGGSLRLICAASGRTFYSYAMGWYRQAPGKERELVASISSGGGTNYADSVKGRFTISRDNAKNTVYLQKNSLKPEDTAVYYCDVDPYPYRGYDYWGQGTQVTVSS	low polyreactivity
QVQLVESGGGLVQAGGSLRLSCAASGFIFSYYAMGLYRQAPGKERELVAAIDYSGGSTNYADSVKGRFTISRDIAKYTVYLQMNSLKPEDTAVYYCNAEYTWHRGYDYWGQGTQVTVSS	low polyreactivity
QVQLVESGGGLVQAGGSLRLSCAASGSTFRFYAMGSYRQAPGKERELVASISRSGGSTYYADSVKGRFTISRDNAKNTVYLQMNSLKPEDTAVYYCAARILYHMDWGQGTQVTVSS	high polyreactivity
QVQLVESGGGLVQAGGSLRLSCAASGRIFNGYTMGWYRQAPGKEREFVATISRSGGSTYYADSVKGRFTISRDNAKNTVYLQMNSLKPEDTAVYYCAKTYPAKWEYDYWGQGTQVTVSS	low polyreactivity
QVQHVESGGGLVQAGGSLRLSCAASGSTSPGYAMGWSRQAPGKERELVAAITFRGTRTYYADSVKGRFTISRDNAKNTVYLQMNSQKPEDTAVYYCNVVGYGPNRGRVDYWGQGTQVTVSS	high polyreactivity
QVQLVESGGGLVQAGGSLRLSCAASGSTLGVYAMGWYRQAPGKERELVAAISSGGSTTYADSVKGRFTISRDNAKNTDYLQMNSLKPEDTAVYYCAATNVRGVYYWGQGTQVTVSS	high polyreactivity
QVQLVESGGGLVQAGGSLRLSCAASGSTFQVNAMGWYRQAPGKERELVASISGGSSTNYADSVKGRFTISRDNAKNTVYFQMNSLKPEDTAVYYCAADYLSGLRVAYDYWGQGTQVTVSS	low polyreactivity
QVQLVESAGGLVQAGGSLRLSCAASGFIFVKYVMGWYRQEPGKERELVATISNGVSTNYADSVKGRFTISRDNAKNTVYLQMNSLKPEDTAVYDCNTGSNAWYFSGDYWGQGTQVTVSS	low polyreactivity
QVQLVKSGGGLVQAGGSLRLSCAASGIIFTDYGMGWYRQAPGKERELVAVISRGGTTKYADSVKGRFTISRDNAKNTVYLQMNSLQPEDTAVYYCAARTWAGRWYGLDFWGQGTQVTVSS	high polyreactivity

— the nanobody polyreactivity screen of Harvey et al. (2022)
